Reference: PMC9352680, “A comprehensive thermodynamic model for RNA binding by the Saccharomyces cerevisiae Pumilio protein PUF4”

T1: PUF4 RNA-binding domain (Saccharomyces cerevisiae, UniProt P25339 537-888)
T1 sequence: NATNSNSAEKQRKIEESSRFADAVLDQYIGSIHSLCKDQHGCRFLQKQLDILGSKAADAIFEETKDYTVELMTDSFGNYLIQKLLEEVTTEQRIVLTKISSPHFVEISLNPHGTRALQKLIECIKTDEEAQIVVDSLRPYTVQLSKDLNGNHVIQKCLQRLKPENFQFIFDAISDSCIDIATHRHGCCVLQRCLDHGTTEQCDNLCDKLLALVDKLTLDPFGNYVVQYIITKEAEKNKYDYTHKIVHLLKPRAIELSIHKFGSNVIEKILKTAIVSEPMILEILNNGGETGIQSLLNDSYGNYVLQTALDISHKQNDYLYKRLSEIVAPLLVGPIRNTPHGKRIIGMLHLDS

B1: Ib_S1_P5E.1_K5.1_C5.1_H5.1_[G2C]_A5.1_[T5C]_F5.1_T5.1 (ssRNA)
RNA: UCUCUUUCUACUAUUAUCUCUU
B2: Id_ii_S4_P3E.3_K3.2_C3.2_[C-2T]_H3.2_A3.1_F3.1_T3.2 (ssRNA)
RNA: UUUGACAACUGAUCGUUCUUUCUUUUAUAUAUAUAUUCUUUCUCGAUCAGUUGUCUUU
B3: Id_ii_S4_P3E.3_K3.2_C3.2_[C-2A]_H3.2_A3.1_F3.1_T3.2_[A10C] (ssRNA)
RNA: UUUGACAACUGAUCGUUCUUUCUAUUAUAUAUAUCUUCUUUCUCGAUCAGUUGUCUUU
B4: Id_ii_S4_P3E.3_K3.2_C3.2_[C-2A]_H3.2_A3.1_F3.1_T3.2 (ssRNA)
RNA: UUUGACAACUGAUCGUUCUUUCUAUUAUAUAUAUAUUCUUUCUCGAUCAGUUGUCUUU
B5: Id_ii_S4_P3E.3_K3.2_C3.2_[T-1A]_H3.2_A3.1_F3.1_T3.2_[T9A] (ssRNA)
RNA: UUUGACAACUGAUCGUUCUUUCUCAUAUAUAUAAAUUCUUUCUCGAUCAGUUGUCUUU
B6: Id_ii_S4_P3E.3_K3.2_C3.2_[T-1C]_H3.2_A3.1_F3.1_T3.2_[T9G]_[A10T] (ssRNA)
RNA: UUUGACAACUGAUCGUUCUUUCUCCUAUAUAUAGUUUCUUUCUCGAUCAGUUGUCUUU
B7: Id_ii_S4_P3E.3_K3.2_C3.2_[C-2A]_[T-1G]_H3.2_A3.1_F3.1_T3.2_[T9A]_[A10G] (ssRNA)
RNA: UUUGACAACUGAUCGUUCUUUCUAGUAUAUAUAAGUUCUUUCUCGAUCAGUUGUCUUU
B8: Id_ii_S4_P3E.3_K3.2_C3.2_H3.2_A3.1_F3.1_T3.2_[A10G] (ssRNA)
RNA: UUUGACAACUGAUCGUUCUUUCUCUUAUAUAUAUGUUCUUUCUCGAUCAGUUGUCUUU
B9: Id_ii_S4_P3E.3_K3.2_C3.2_[T-1G]_H3.2_A3.1_F3.1_T3.2_[T9A] (ssRNA)
RNA: UUUGACAACUGAUCGUUCUUUCUCGUAUAUAUAAAUUCUUUCUCGAUCAGUUGUCUUU
B10: Id_ii_S4_P3E.3_K3.2_C3.2_[C-2A]_H3.2_A3.1_F3.1_T3.2_[A10G] (ssRNA)
RNA: UUUGACAACUGAUCGUUCUUUCUAUUAUAUAUAUGUUCUUUCUCGAUCAGUUGUCUUU
B11: Id_ii_S4_P3E.3_K3.2_C3.2_[T-1C]_H3.2_A3.1_F3.1_T3.2_[A10G] (ssRNA)
RNA: UUUGACAACUGAUCGUUCUUUCUCCUAUAUAUAUGUUCUUUCUCGAUCAGUUGUCUUU
B12: Id_ii_S4_P3E.3_K3.2_C3.2_[T-1C]_H3.2_A3.1_F3.1_T3.2_[T9A]_[A10C] (ssRNA)
RNA: UUUGACAACUGAUCGUUCUUUCUCCUAUAUAUAACUUCUUUCUCGAUCAGUUGUCUUU
B13: Id_ii_S4_P3E.3_K3.2_C3.2_[C-2A]_[T-1A]_H3.2_A3.1_F3.1_T3.2_[T9A] (ssRNA)
RNA: UUUGACAACUGAUCGUUCUUUCUAAUAUAUAUAAAUUCUUUCUCGAUCAGUUGUCUUU
B14: Id_ii_S4_P3E.3_K3.2_C3.2_[C-2A]_[T-1A]_H3.2_A3.1_F3.1_T3.2_[T9C]_[A10G] (ssRNA)
RNA: UUUGACAACUGAUCGUUCUUUCUAAUAUAUAUACGUUCUUUCUCGAUCAGUUGUCUUU
B15: Id_ii_S4_P3E.4_K3.3_C3.2_[C-2G]_H3.3_A3.1_F3.1_T3.2_[T9A]_[A10T] (ssRNA)
RNA: UUUGACAACUGAUCGUUCUUUCUGUACACUAUAAUUUCUUUCUCGAUCAGUUGUCUUU
B16: Id_ii_S4_P3E.3_K3.2_C3.2_[C-2A]_H3.2_A3.1_F3.1_T3.2_[A10T] (ssRNA)
RNA: UUUGACAACUGAUCGUUCUUUCUAUUAUAUAUAUUUUCUUUCUCGAUCAGUUGUCUUU
B17: Id_ii_S4_P3E.3_K3.2_C3.2_[C-2A]_[T-1C]_H3.2_A3.1_F3.1_T3.2_[T9C]_[A10T] (ssRNA)
RNA: UUUGACAACUGAUCGUUCUUUCUACUAUAUAUACUUUCUUUCUCGAUCAGUUGUCUUU
B18: Id_ii_S4_P3E.3_K3.2_C3.2_[C-2A]_[T-1C]_H3.2_A3.1_F3.1_T3.2_[T9C] (ssRNA)
RNA: UUUGACAACUGAUCGUUCUUUCUACUAUAUAUACAUUCUUUCUCGAUCAGUUGUCUUU
B19: Id_ii_S4_P3E.3_K3.2_C3.2_[C-2A]_[T-1A]_H3.2_A3.1_F3.1_T3.2_[T9A]_[A10T] (ssRNA)
RNA: UUUGACAACUGAUCGUUCUUUCUAAUAUAUAUAAUUUCUUUCUCGAUCAGUUGUCUUU
B20: Id_ii_S4_P3E.4_K3.3_C3.2_[C-2G]_H3.3_A3.1_F3.1_T3.2_[A10T] (ssRNA)
RNA: UUUGACAACUGAUCGUUCUUUCUGUACACUAUAUUUUCUUUCUCGAUCAGUUGUCUUU
B21: Id_ii_S4_P3E.3_K3.2_C3.2_H3.2_A3.1_F3.1_T3.2_[T9G]_[A10C] (ssRNA)
RNA: UUUGACAACUGAUCGUUCUUUCUCUUAUAUAUAGCUUCUUUCUCGAUCAGUUGUCUUU
B22: Id_ii_S4_P3E.3_K3.2_C3.2_[T-1G]_H3.2_A3.1_F3.1_T3.2_[T9C]_[A10C] (ssRNA)
RNA: UUUGACAACUGAUCGUUCUUUCUCGUAUAUAUACCUUCUUUCUCGAUCAGUUGUCUUU
B23: Id_ii_S4_P3E.3_K3.2_C3.2_[T-1C]_H3.2_A3.1_F3.1_T3.2_[A10T] (ssRNA)
RNA: UUUGACAACUGAUCGUUCUUUCUCCUAUAUAUAUUUUCUUUCUCGAUCAGUUGUCUUU
B24: Id_ii_S4_P3E.3_K3.2_C3.2_[C-2A]_[T-1A]_H3.2_A3.1_F3.1_T3.2_[A10C] (ssRNA)
RNA: UUUGACAACUGAUCGUUCUUUCUAAUAUAUAUAUCUUCUUUCUCGAUCAGUUGUCUUU

Each binder was assayed against T1, PUF4 RNA-binding domain (assay: Mg; RNA-MaP; 20 mM Na-HEPES pH 7.4, 30 mM KOAc, 0.75 mM MgCl2, 0.1% Tween-20, 5% glycerol, 0.1 mg/mL BSA, 2 mM DTT; 25 C; 0.0125-409.6 nM protein). Details: tags: N-His6-TEV cleaved; C-SNAP kept, Cy3B-labelled; label: tethered on chip by stalled RNA polymerase.

With B1 as the binder, how does the Kd read?
Its Kd is greater than 2300 nM.

Which Kd does the source give for B2 here?
Its Kd is 117 nM.

B3 was tested. Which Kd did it give?
The Kd was 134 nM.

B4 was tested. Which Kd did it give?
Its Kd is 596 nM.

With B5 as the binder, how does the Kd read?
The Kd was 842 nM.

For B6, which Kd is on record?
The Kd was 392 nM.

How did the Kd turn out when B7 was run?
Its Kd is 1140 nM.

With B8 as the binder, how does the Kd read?
Its Kd is 276 nM.

With B9 as the binder, how does the Kd read?
The Kd was 404 nM.

With B10 as the binder, how does the Kd read?
The Kd was 978 nM.

B11 was tested. Which Kd did it give?
The Kd was 126 nM.

How did the Kd turn out when B12 was run?
Its Kd is 467 nM.

With B13 as the binder, how does the Kd read?
Its Kd is 723 nM.

For B14, which Kd is on record?
Its Kd is 745 nM.

Which Kd does the source give for B15 here?
Its Kd is 0.68 nM.

For B16, which Kd is on record?
Its Kd is 203 nM.

With B17 as the binder, how does the Kd read?
The Kd was 132 nM.

For B18, which Kd is on record?
The Kd was 261 nM.

For B19, which Kd is on record?
Its Kd is 584 nM.

With B20 as the binder, how does the Kd read?
Its Kd is 0.57 nM.

How did the Kd turn out when B21 was run?
The Kd was 567 nM.

Which Kd does the source give for B22 here?
The Kd was 978 nM.

How did the Kd turn out when B23 was run?
The Kd was 37.4 nM.

Which Kd does the source give for B24 here?
The Kd was 296 nM.
